# T1: mouse NaPi2b (mouse, UniProt Q9DBP0 1-697)
# T1 construct: Transiently expressed on HEK293-6e cells; also called Ms NaPi2b
# T1 sequence: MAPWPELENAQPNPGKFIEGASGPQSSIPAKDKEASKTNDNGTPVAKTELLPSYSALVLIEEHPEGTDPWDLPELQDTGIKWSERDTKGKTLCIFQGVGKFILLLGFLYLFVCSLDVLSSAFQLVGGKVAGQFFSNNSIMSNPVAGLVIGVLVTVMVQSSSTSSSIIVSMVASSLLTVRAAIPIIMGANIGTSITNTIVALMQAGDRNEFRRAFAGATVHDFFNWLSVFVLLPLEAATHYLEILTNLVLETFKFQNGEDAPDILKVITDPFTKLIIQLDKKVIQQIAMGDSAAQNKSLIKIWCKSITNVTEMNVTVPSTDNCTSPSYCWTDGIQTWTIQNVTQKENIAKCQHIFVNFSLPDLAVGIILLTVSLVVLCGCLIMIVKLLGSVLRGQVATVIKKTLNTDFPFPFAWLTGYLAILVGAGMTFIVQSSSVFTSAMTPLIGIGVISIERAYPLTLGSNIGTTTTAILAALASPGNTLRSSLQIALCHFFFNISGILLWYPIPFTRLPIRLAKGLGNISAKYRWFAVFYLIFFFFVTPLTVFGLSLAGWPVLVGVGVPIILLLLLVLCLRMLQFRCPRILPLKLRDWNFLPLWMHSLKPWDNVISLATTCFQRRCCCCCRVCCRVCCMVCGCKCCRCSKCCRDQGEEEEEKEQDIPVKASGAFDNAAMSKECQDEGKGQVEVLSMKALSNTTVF
# T2: cynomolgus monkey NaPi2b (cynomolgus monkey, UniProt O95436 1-690 (human entry))
# T2 construct: Transiently expressed on HEK293-6e cells; also called Cyno NaPi2b
# T2 chain: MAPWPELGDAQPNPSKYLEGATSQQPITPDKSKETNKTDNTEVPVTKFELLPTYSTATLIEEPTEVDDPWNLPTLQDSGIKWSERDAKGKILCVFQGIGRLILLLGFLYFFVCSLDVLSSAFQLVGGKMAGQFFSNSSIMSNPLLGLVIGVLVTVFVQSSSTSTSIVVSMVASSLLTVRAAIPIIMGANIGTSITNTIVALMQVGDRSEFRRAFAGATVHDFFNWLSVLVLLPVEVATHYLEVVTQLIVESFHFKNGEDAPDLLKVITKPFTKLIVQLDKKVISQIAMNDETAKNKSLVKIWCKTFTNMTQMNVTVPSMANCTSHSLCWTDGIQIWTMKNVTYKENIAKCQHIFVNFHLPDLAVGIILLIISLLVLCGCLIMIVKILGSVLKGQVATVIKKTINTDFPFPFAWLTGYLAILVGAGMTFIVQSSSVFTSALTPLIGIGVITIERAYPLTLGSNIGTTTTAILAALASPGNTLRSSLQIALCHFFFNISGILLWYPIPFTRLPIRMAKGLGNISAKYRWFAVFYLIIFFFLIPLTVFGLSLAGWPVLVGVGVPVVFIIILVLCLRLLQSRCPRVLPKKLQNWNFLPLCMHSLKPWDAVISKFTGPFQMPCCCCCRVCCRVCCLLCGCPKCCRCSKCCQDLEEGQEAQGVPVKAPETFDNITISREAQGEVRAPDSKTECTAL
# T3: human sodium-dependent phosphate transporter 2B (NaPi2b) (human, UniProt O95436 1-690)
# T3 construct: UniProt ID is given as 095436 [sic]; also called hNaPi2b; Hu NaPi2b
# T3 sequence: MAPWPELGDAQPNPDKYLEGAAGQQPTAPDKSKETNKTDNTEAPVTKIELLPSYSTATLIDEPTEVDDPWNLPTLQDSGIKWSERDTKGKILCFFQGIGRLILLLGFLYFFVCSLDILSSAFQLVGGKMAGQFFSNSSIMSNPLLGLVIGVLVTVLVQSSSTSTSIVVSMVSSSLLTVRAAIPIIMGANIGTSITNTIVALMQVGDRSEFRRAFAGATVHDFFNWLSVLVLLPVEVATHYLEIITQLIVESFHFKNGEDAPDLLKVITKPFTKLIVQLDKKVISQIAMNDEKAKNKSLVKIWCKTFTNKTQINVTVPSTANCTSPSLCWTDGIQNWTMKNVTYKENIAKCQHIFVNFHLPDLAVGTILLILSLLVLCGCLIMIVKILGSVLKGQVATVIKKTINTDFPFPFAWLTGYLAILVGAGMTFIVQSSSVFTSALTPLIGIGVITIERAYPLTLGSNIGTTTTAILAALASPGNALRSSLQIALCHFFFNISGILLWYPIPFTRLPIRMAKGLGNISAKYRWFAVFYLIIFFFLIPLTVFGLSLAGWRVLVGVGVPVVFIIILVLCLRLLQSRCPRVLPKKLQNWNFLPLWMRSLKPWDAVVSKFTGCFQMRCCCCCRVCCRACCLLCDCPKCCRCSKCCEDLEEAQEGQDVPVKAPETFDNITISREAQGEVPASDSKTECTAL
# B1: v22277, palivizumab (anti-RSV) negative control (antibody, human IgG1, kappa)
# heavy 1: GQVTLRESGPALVKPTQTLTLTCTFSGFSLSTSGMSVGWIRQPPGKALEWLADIWWDDKKDYNPSLKSRLTISKDTSKNQVVLKVTNMDPADTATYYCARSMITNWYFDVWGAGTTVTVSSASTKGPSVFPLAPSSKSTSGGTAALGCLVKDYFPEPVTVSWNSGALTSGVHTFPAVLQSSGLYSLSSVVTVPSSSLGTQTYICNVNHKPSNTKVDKKVEPKSCDKTHTCPPCPAPELLGGPSVFLFPPKPKDTLMISRTPEVTCVVVDVSHEDPEVKFNWYVDGVEVHNAKTKPREEQYNSTYRVVSVLTVLHQDWLNGKEYKCKVSNKALPAPIEKTISKAKGQPREPQVYVYPPSRDELTKNQVSLTCLVKGFYPSDIAVEWESNGQPENNYKTTPPVLDSDGSFALVSKLTVDKSRWQQGNVFSCSVMHEALHNHYTQKSLSLSPG
# heavy 2: not shown
# light: GDIQMTQSPSTLSASVGDRVTITCKSQLSVGYMHWYQQKPGKAPKLLIYDTSKLASGVPSRFSGSGSGTEFTLTISSLQPDDFATYYCFQGSGYPFTFGGGTKLEIKRTVAAPSVFIFPPSDEQLKSGTASVVCLLNNFYPREAKVQWKVDNALQSGNSQESVTEQDSKDSTYSLSSTLTLSKADYEKHKVYACEVTHQGLSSPVTKSFNRGEC
# notes: Heterodimeric Fc form of palivizumab (clones CL_#11009, CL_#11010, CL_#16635); also called neg control
# B2: v38591 humanized anti-NaPi2b antibody (antibody, human IgG1, kappa)
# heavy: not shown
# light: DVQMTQSPSSLSASVGDRVTITCRASQDVYSYLNWYQQKPGKAVKLLIYYTSRLQSGVPSRFSGSGSGTDYTLTISSLQPEDFATYYCQQYNIFPWTFGQGTKLEIKRTVAAPSVFIFPPSDEQLKSGTASVVCLLNNFYPREAKVQWKVDNALQSGNSQESVTEQDSKDSTYSLSSTLTLSKADYEKHKVYACEVTHQGLSSPVTKSFNRGEC
# notes: also called humanized v38591 anti-NaPi2b (SLC34A2) variant
# Columns and labels:
# mouse NaPi2b = target: T1, mouse NaPi2b; assay: flow cytometry on HEK293-6e cells transiently expressing mouse NaPi2b, 4 C, anti-human IgG Fc AF647 detection
# cynomolgus monkey NaPi2b = target: T2, cynomolgus monkey NaPi2b; assay: flow cytometry on HEK293-6e cells transiently expressing cynomolgus NaPi2b, 4 C, anti-human IgG Fc AF647 detection
# [1] = target: T3, human sodium-dependent phosphate …; assay: flow cytometry, IGROV-1 cells (endogenous NaPi2b); apparent Kd
# Protocol: (§1) Briefly, cells were seeded at 50,000 cells/well in conical-bottom 96-well plates and treated with test antibody for 24 hours at 4° C. to prevent internalization. […] Following incubation, cells were washed and stained with anti-Human IgG Fc AF647 conjugate (Jackson Immuno Research Labs, West Grove, PA; Cat. No. 109-605-098) at 4° C. for 30 min. Following incubation and washing, fluorescence was detected by flow cytometry on a BD LSRFortessa™ Cell Analyzer (BD Biosciences, Franklin Lake, NJ) with 1,000 minimum events collected per well. The AF647/APC-A GeoMean (fluorescence signal geometric mean, proportional to anti-Human AF647 binding) was calculated for the live cell population using FlowJo™ Version 10.8.1 (BD Biosciences, Franklin Lake, NJ) and plotted for each test antibody using GraphPad Prism Version 9 (GraphPad Software, San Diego, CA).
# (§2) The ability of the humanized antibody variants v38591 and v29456 to bind to NaPi2b expressed on cells was assessed on endogenous NaPi2b-expressing tumor cell lines IGROV-1 (ovarian adenocarcinoma) and TOV-21G (ovarian carcinoma) by flow cytometry.
# (§3) Cellular binding was performed according to methods described in Example 13.
# [2] = target: T3, human sodium-dependent phosphate …; assay: flow cytometry, TOV-21G cells (endogenous NaPi2b); apparent Kd
# Protocol: as §1, §2, §3
# [3] = target: T3, human sodium-dependent phosphate …; assay: flow cytometry, HEK293-6e cells transfected with human NaPi2b; apparent Kd
# Protocol: The binding cross-reactivity of humanized antibody variant v38591 to human NaPi2b, NaPi2a, and NaPi2c was assessed by flow cytometry using HEK293-6e transfected cells.
# Following transfection, cells were seeded at 50,000 cells/well in conical-bottom 96-well plates and treated with test antibody for 24 hours at 4° C. to prevent internalization. Following incubation, cells were washed and stained with anti-Human IgG Fc AF647 conjugate (Jackson Immuno Research Labs, West Grove, PA; Cat. No. 109-605-098) or anti-Rabbit IgG F(ab″)2 AF647 conjugate (Jackson Immuno Research Labs, West Grove, PA; Cat. No. 111-605-047). Following incubation and washing, fluorescence was detected by flow cytometry on a BD LSRFortessa™ Cell Analyzer (BD Biosciences, Franklin Lake, NJ) with 1,000 minimum events collected per well. The AF647/APC-A GeoMean (fluorescence signal geometric mean, proportional to anti-Human AF647 binding) was calculated for the live cell population using FlowJo™ Version 10.8.1 (BD Biosciences, Franklin Lake, NJ) and plotted for each test antibody using GraphPad Prism Version 9 (GraphPad Software, San Diego, CA).
# [4] = target: T3, human sodium-dependent phosphate …; assay: flow cytometry on IGROV-1 cells (endogenous NaPi2b), 24 h at 4 C, anti-human IgG Fc AF647 detection
# Protocol: as §1, §2, §3
# [5] = target: T3, human sodium-dependent phosphate …; assay: flow cytometry on TOV-21G cells (endogenous NaPi2b), 24 h at 4 C, anti-human IgG Fc AF647 detection
# Protocol: as §1, §2, §3
# FcgR1A = target: T4, FcgR1A (human, UniProt P12314 16-374); assay: Membrane Proteome Array screen, flow cytometry on HEK293T cells each expressing one of over 6000 human membrane proteins
# T4 construct: whole, on cells
# T4 sequence (P12314 16-374): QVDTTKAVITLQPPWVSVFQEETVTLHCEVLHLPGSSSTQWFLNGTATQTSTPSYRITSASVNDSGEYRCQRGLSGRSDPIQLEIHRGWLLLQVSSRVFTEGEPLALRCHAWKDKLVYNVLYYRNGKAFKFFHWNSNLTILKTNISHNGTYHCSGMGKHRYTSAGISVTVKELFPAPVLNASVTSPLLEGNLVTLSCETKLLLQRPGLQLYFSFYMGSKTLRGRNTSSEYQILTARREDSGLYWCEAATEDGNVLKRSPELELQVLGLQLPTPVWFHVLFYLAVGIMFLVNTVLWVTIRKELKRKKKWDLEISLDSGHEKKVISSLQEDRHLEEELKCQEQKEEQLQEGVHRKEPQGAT
# Protocol: Briefly, the study consisted of three phases: phase (1) determination of assay screening conditions, phase (2) membrane proteome array (library) screen and phase (3) protein target validation. […] In phase (3), each protein target hit from the screen stage (potential off-target interactions) was assessed in titration experiment using flow cytometry.
binder,measurement,setting,value
B1,binding result,mouse NaPi2b,no binding (tested: about 200 nM)
same,binding result,cynomolgus monkey NaPi2b,no binding (tested: about 200 nM)
B2,Kd,[1],1.39 nM
same,Kd,[2],0.74 nM
same,Kd,[3],1.68 nM
same,EC50 (read off the curve),[4],~1 nM
same,EC50 (read off the curve),[5],~0.7 nM
same,binding result,FcgR1A,binds
